This note sets out measurements from publication PMC9585510.

Assay [1] has as its target Marchantia polymorpha plant cysteine oxidase (MpPCO), with N-terminal His6-tag (Marchantia polymorpha).
Assay [2] concerns the target MpPCOc, Marchantia polymorpha plant cysteine oxidase with the N-terminal His6-tag removed (Marchantia polymorpha).

For the molecule “AtRAP2(2-15), 14-mer peptide representing the N-terminus of the A. thaliana ERF-VIIs RAP2.2 and RAP2.12”, the KM for the peptide substrate in steady-state kinetics of Nt-Cys oxidation (LC-MS; atmospheric O2, 25 °C, 50 mM bis-tris propane, 50 mM NaCl, 1 mM TCEP, pH 8.0; fitted with substrate inhibition) in assay [1] came out at 11 μM.
As for CRMNKRLGKGETGL, the KM for the peptide substrate in steady-state kinetics of Nt-Cys oxidation (LC-MS; atmospheric O2, 25 °C, 50 mM bis-tris propane, 50 mM NaCl, 1 mM TCEP, pH 8.0) in assay [2] is 509 μM.
